The target of assay [1] is T1, Homo sapiens factor Bb protein (human, UniProt P00751 260-764).
T1 construct: Bought from CompTech (A155); also called complement factor Bb; human factor Bb
Put plainly: SPR single cycle kinetics, antibody on Protein A chip, antigen analyte. Here is the method:
(§1) The ability of VH4/VK6 and VH6/VK7 to bind to zymogen factor B and factor Bb from both human and cynomolgus monkey was determined by surface plasmon resonance using a Biacore T200. Human factor B and factor Bb were purchased from Comptech and cynomolgus monkey factor B and factor Bb were purified in-house. Briefly, the monoclonal antibodies were captured on a Biacore Series S Protein A chip in HBSP+ (10 mM HEPES, 150 mM NaCl, 0.05% P20 pH 7.4) at a flow rate of 30 μL/min. A five-point concentration series of each analyte was tested for binding using single cycle kinetics with a contact time of 180 seconds per concentration followed by a 600 sec dissociation at 25° C. and a flow rate of […]. Both human and cynomolgus monkey factor B started at a concentration of 500 nM followed by 2-fold dilutions, while human and cynomolgus monkey factor Bb started at concentrations of 30 nM and 150 nM, respectively, followed by 2-fold dilutions. Data were analyzed using the Biacore evaluation software using a 1:1 binding model. […] Binding to human or cynomolgus monkey factor B was barely detectable and the small signal that was observed was dominated by non-specific binding.

Assay [2] has as its target T1, Homo sapiens factor Bb protein. Briefly: SPR single cycle kinetics; against cynomolgus monkey factor Bb. Here is the method: as §1
Assay [3] has the same target. Put plainly: BLI Octet, biotinylated antibody on SA biosensors. Here is the method:
(§2) Briefly, biotinylated antibodies were loaded onto SA Biosensors equilibrated in PBS, 0.1% BSA, 0.02% Tween-20 (assay buffer). After a 60 second baseline in assay buffer, antibodies were loaded onto the probes for 180 seconds, followed by another 60 second baseline. Association to human (Comptech) or cynomolgus monkey factor Bb (purified in-house) was measured for 300 seconds, followed by a 300 second dissociation. Kinetic parameters were calculated by the Octet Analysis software using a 1:1 binding model.
To determine whether the modification of the Fc portion of the antibodies affected affinity and species cross-reactivity, VH4/VK6-IgG4v2 and VH6/VK7-IgG4v2 were tested alongside their parental antibodies, VH4/VK6 and VH6/VK7, respectively, for their ability to bind human and cynomolgus monkey factor Bb by BLI. VH4/VK6-IgG4v2 and VH6/VK7-IgG4v2 contain mutations in the Fc region that increase the affinity for an Fc receptor.
On the technique in general: Biolayer interferometry detects binding as a change in optical thickness at a sensor tip.

Assay [4] has the same target. Put plainly: BLI, multi-cycle kinetics, antibody loaded on anti-hIgG Fc sensors, human factor Bb in solution (100 nM to 0.14 nM), 1:1 fit. Here is the method: Multicycle kinetic analysis was performed on CHO and HEK-produced VH6/VK7-IgG4v2 antibodies using biolayer interferometry. Antibodies were diluted to 10 μg/mL in PBS+ 0.02%. Tween20, 0.1% BSA, 0.05% sodium azide and loaded onto anti-hIgG Fc sensors (pre-equilibrated in the same buffer) for 90 seconds followed by a 60-minute baseline in buffer. Binding of a concentration series of human factor Bb (Complement Technologies, #A155), ranging from 100 nM to 0.14 nM in 2-fold dilutions, was measured in a 300 second association in the same buffer, followed by a 300 second dissociation step.

For assay [5] the target is unchanged. Briefly: BLI Octet, biotinylated antibody on SA biosensors. Here is the method:
as §2
This is another data set of the same source.

The target is the same in assay [6]. Briefly: SPR multi-cycle kinetics, IgG on Protein A chip, factor Bb analyte. Here is the method: (§3) Antibodies were diluted in running buffer to a final concentration of 0.5 μg/ml. At the start of each cycle, antibodies were loaded onto Fc2, Fc3 and Fc4 of the Protein A chip (GE Healthcare, Little Chalfont, UK). IgGs were captured at a flow rate of 10 μl/min to give an immobilisation level (RL) of ˜63 RU, the theoretical value to obtain an Rmax of ˜50 RU. The surface was then allowed to stabilize. Kinetic data was obtained with factor Bb as analyte and using a flow rate of 30 μl/min to minimize any potential mass transfer effects. Multiple repeats of a blank and a repeat of a single concentration of the analyte were programmed into the kinetic run in order to check the stability of both the surface and analyte over the kinetic cycles. For kinetic analysis, a two-fold dilution range was selected from 12. 5 nM to 0. 391 nM factor Bb. The association phase of factor Bb was monitored for 360 seconds and the dissociation phase was monitored for 600 seconds. Regeneration of the Protein A surface was conducted using two injections of 10 mM glycine-HCL pH 1. 5. The signal from the reference channel Fc1 was subtracted from that of Fc2, Fc3 and Fc4 to correct for differences in non-specific binding to a reference surface, and a global Rmax parameter was used in the 1-to-1 binding model.
(§4) The sensorgrams and fitted data for the binding of chimeric antibodies and humanized variants to factor Bb are shown in FIGS. 4A-4C. The relative KD was calculated by dividing the KD of the humanized variants by that of the chimeric antibody on the same chip. The kinetic parameters measured for the interaction of factor Bb with chimeric antibodies and humanized variants are shown in Table 10.

For assay [7] the target is unchanged. Briefly: cell-based or functional assay.
Assay [8] has the same target. Briefly: competition ELISA on coated factor Bb; competitor murine parental antibody. Here is the method:
Factor Bb was diluted in 1× PBS to 1.0 μg/ml and 100 μl/well was coated overnight at 4° C. on a 96-well ELISA plate. The following day the plates were blocked for two hours at room temperature with 1% casein/PBS before washing 2× with PBS pH 7.4. In a 96-well dilution plate a fixed concentration of murine parental antibody (0.5 μg/ml, final concentration) was added in equal volume to a four-fold titration series of test antibody (starting from 45 μg/ml to 0.01 μg/ml, final concentration) diluted in blocking buffer. After washing the plate 3× with PBS-T, 100 μl of chimeric/test antibody mix was added to the ELISA plate. After incubating at room temperature for one hour, the plate was washed 3× with PBS-T and 100 μl of anti-mouse IgG Fc-Specific HRP (Sigma, Dorset, UK) diluted 1:1000 in PBS-T was applied for one hour at room temperature to detect bound mouse antibody. For color development, the plate was washed 3× with PBS-T following which 100 μl of TMB substrate was added and incubated for approximately five minutes at room temperature. The reaction was stopped with 50 μl of 3.0 M hydrochloric acid and absorbance was read immediately using a DYNEX ® plate reader at 450 nm.
IC50 values were calculated for each variant and relative IC50 values were calculated by dividing the IC50 of the humanized variant by that of the chimeric antibody assayed on the same plate (Table 11).
On the technique in general: ELISA stands for enzyme-linked immunosorbent assay.

The target is the same in assay [9]. Put plainly: SPR multi-cycle kinetics; ratio against VH0/Vκ0 on the same chip. Here is the method:
as §3, §4

Assay [10] has the same target. Put plainly: SPR single cycle kinetics; ratio against VH0/Vκ0. Here is the method: All single cycle kinetic experiments were run at 25° C. with HBS-P+running buffer (pH 7. 4) (GE Healthcare, Little Chalfont, UK).
(§5) Antibodies were diluted in running buffer to a final concentration of 1 μg/ml, based on concentrations assessed by ELISA titer. At the start of each cycle, antibodies were loaded onto Fc2, Fc3 and Fc4 of the Protein A chip (GE Healthcare, Little Chalfont, UK). IgGs were captured at a flow rate of 10 μl/min to give an immobilization level (RL) of ˜63 RU, the theoretical value to obtain an Rmax of ˜50 RU. The surface was then allowed to stabilize. Single cycle kinetic data was obtained with factor Bb (CompTech, Tyler, USA) as the analyte at a flow rate of 30 μl/min to minimize any potential mass transport limitations. Multiple repeats with the reference chimeric antibody were performed to check the stability of the surface and analyte over the kinetic cycles. The signal from the reference channel Fc1 (no antibody) was subtracted from that of Fc2, Fc3 and Fc4 to correct for differences in non-specific binding to a reference surface. A four point, two-fold dilution range from 0. 78 nM to 6. 25 nM factor Bb without regeneration between each concentration was used. The association phase for the four injections of increasing concentrations of factor Bb was monitored for 200 seconds each time and a single dissociation phase was measured for 200 seconds following the last injection of factor Bb. Regeneration of the Protein A surface was conducted using two injections of 10 mM glycine-HCL pH 1. 5.
Single cycle kinetics using cell culture supernatants were performed as described above. […] The relative KD was calculated by dividing the KD of the VH0/Vκ0 reference antibody by that of the humanized variant assayed in the same experiment.

The target is the same in assay [11]. Put plainly: SPR single cycle kinetics, IgG on Protein A chip, factor Bb analyte. Here is the method: In order to assess the binding of all humanized variants, single cycle kinetic analysis was performed on supernatants from transfected cell cultures. […] All single cycle kinetic experiments were run at 25° C. with HBS-P+running buffer (pH 7. 4) (GE Healthcare, Little Chalfont, UK).
as §5
Single cycle kinetics using cell culture supernatants were performed as described above.

Where a chain is given by its changes, count along the chain named.

T1 sequence (P00751 260-764 limits assumed): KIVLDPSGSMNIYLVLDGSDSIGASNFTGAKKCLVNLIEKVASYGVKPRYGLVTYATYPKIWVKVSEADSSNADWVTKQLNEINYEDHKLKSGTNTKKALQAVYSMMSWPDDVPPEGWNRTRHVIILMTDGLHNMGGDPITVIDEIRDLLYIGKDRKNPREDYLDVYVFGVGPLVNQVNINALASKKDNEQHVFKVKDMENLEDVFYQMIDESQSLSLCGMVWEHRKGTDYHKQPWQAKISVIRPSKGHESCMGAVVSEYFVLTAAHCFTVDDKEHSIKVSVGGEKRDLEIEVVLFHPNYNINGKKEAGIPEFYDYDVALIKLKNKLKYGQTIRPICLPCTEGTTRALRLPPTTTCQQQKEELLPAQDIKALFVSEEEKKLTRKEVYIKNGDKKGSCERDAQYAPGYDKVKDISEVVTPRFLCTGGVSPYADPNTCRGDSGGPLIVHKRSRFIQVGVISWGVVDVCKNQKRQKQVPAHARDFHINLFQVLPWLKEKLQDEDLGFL

B1: VH4/Vκ6-IgG4v2 (antibody)
heavy: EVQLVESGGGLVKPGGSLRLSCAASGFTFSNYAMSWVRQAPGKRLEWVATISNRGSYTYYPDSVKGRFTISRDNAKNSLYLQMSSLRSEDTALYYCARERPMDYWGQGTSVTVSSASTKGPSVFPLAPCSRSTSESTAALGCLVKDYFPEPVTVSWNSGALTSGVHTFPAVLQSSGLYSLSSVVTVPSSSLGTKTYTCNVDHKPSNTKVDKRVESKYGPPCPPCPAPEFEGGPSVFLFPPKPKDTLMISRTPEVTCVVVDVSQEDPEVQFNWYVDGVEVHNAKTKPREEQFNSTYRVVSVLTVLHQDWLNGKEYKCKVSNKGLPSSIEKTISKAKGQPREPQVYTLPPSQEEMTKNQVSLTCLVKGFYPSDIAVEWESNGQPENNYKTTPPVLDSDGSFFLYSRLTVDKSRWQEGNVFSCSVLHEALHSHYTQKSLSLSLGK
light: DIVMTQSPSFLSASVGDRVTITCKASQDVGTAVAWYQQKPGKAPKLLIYWASTRHTGVPDRFTGSGSGTDFTLTISSLQSEDFAVYFCHQHSSNPLTFGQGTKLEIKRTVAAPSVFIFPPSDEQLKSGTASVVCLLNNFYPREAKVQWKVDNALQSGNSQESVTEQDSKDSTYSLSSTLTLSKADYEKHKVYACEVTHQGLSSPVTKSFNRGEC
notes: also called VH4/VK6-IgG4v2
For B1, in assay [1], the Kd (commonly the free concentration of one partner at which half of the binding sites on the other are occupied at equilibrium, for simple one-to-one binding) turned out to be 2.26 nM; the off-rate (koff) (commonly a measure of how fast the partners let go of each other) was 0.000925 s⁻¹; the kon (usually the rate constant with which the complex forms) turned out to be 410000 M⁻¹ s⁻¹. The “fold higher affinity for human factor Bb compared to cynomolgus monkey factor Bb” value in assay [2] is roughly 10 fold. The dissociation constant (Kd) in [3] came to 1.6 nM.

B2: VH6/Vk7-IgG4v2-CHO (antibody)
heavy chain: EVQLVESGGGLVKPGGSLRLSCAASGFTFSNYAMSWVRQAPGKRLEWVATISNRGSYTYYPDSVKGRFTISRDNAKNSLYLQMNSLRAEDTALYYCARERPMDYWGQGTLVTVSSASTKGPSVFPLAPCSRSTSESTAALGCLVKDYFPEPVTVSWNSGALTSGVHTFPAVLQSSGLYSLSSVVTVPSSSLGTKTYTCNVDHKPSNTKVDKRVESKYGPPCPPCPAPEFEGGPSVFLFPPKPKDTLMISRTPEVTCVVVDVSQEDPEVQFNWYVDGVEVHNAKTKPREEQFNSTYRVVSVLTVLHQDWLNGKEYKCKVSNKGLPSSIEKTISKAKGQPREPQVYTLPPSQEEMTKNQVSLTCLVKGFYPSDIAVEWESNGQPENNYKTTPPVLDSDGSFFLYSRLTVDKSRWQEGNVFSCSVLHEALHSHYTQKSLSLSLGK
light chain: B1 light with V3Q, F10T, T63S, S80A
As to B2, the dissociation constant Kd in [4] turned out to be 2.7 nM.

B3: VH6/Vκ7-IgG4v1 (antibody)
heavy: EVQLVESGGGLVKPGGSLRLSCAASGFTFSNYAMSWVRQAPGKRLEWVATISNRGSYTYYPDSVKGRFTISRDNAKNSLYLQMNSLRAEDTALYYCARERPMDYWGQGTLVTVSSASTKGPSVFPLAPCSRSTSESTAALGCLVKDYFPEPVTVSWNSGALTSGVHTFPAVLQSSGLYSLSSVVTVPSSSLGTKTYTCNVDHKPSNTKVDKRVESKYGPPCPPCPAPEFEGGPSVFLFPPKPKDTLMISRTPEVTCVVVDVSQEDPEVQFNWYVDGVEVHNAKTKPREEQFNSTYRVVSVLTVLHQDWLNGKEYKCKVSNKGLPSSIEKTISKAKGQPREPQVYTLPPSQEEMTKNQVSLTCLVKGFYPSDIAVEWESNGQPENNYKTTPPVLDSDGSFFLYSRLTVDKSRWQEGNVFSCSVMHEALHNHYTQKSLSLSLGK
light: B1 light with V3Q, F10T, T63S, S80A
notes: also called VH6/VK7; VH6/VK7-IgG4v1
Consider B3, for which the Kd in assay [5] came out at 1.9 nM; in [6] it was 5.7 nM; in [3] it was 1.7 nM; in assay [11], 3.51 nM. For the same molecule, the koff in assay [6] came to 0.00124 s⁻¹; in assay [11], 0.00221 s⁻¹. The kon is 218000 M⁻¹ s⁻¹ in assay [6] and 630000 M⁻¹ s⁻¹ in [11]. Moreover, the “AP Assay IC50” value in assay [7] is 21 nM. Also, the IC50 (usually the concentration at which inhibition is half-maximal) in assay [8] is 0.82 nM. For the same molecule, the “Relative KD” value in assay [9] worked out at 2.98; in assay [10] it was 1.98.

The values are drawn from patent US20210332115A1 (Sanofi, published 2021).
